Biological target: the molecule itself
Test: cryo-EM structure; single-particle cryo-EM of purified ATG9B in LMNG-CHS micelles; 20 mM Tris-HCl, 200 mM NaCl, pH 8.5; reconstructions with C3 and without symmetry

B1: 3×FLAG-6×His-TEV-ATG9B (full-length human ATG9B), purified from Expi293 cells (natural protein, UniProt Q674R7-1 1-924, looked up)
chain: MVSRMGWGGRRRRLGRWGDLGPGSVPLLPMPLPPPPPPSCRGPGGGRISIFSLSPAPHTRSSPSSFSPPTAGPPCSVLQGTGASQSCHSALPIPATPPTQAQPAMTPASASPSWGSHSTPPLAPATPTPSQQCPQDSPGLRVGPLIPEQDYERLEDCDPEGSQDSPIHGEEQQPLLHVPEGLRGSWHHIQNLDSFFTKIYSYHQRNGFACILLEDVFQLGQFIFIVTFTTFLLRCVDYNVLFANQPSNHTRPGPFHSKVTLSDAILPSAQCAERIRSSPLLVLLLVLAAGFWLVQLLRSVCNLFSYWDIQVFYREALHIPPEELSSVPWAEVQSRLLALQRSGGLCVQPRPLTELDIHHRILRYTNYQVALANKGLLPARCPLPWGGSAAFLSRGLALNVDLLLFRGPFSLFRGGWELPHAYKRSDQRGALAARWGRTVLLLAALNLALSPLVLAWQVLHVFYSHVELLRREPGALGARGWSRLARLQLRHFNELPHELRARLARAYRPAAAFLRTAAPPAPLRTLLARQLVFFAGALFAALLVLTVYDEDVLAVEHVLTAMTALGVTATVARSFIPEEQCQGRAPQLLLQTALAHMHYLPEEPGPGGRDRAYRQMAQLLQYRAVSLLEELLSPLLTPLFLLFWFRPRALEIIDFFHHFTVDVAGVGDICSFALMDVKRHGHPQWLSAGQTEASLSQRAEDGKTELSLMRFSLAHPLWRPPGHSSKFLGHLWGRVQQDAAAWGATSARGPSTPGVLSNCTSPLPEAFLANLFVHPLLPPRDLSPTAPCPAAATASLLASISRIAQDPSSVSPGGTGGQKLAQLPELASAEMSLHVIYLHQLHQQQQQQEPWGEAAASILSRPCSSPSQPPSPDEEKPSWSSDGSSPASSPRQQWGTQKARNLFPGGFQVTTDTQKEPDRASCTD
notes: ATG9B, human, canonical isoform 1 (Q674R7-1), full length; residues 191-674 visible in the cryo-EM map; A TEV site lies between the 6×His tag and ATG9B; no cleavage is described; Eluted from the anti-FLAG resin with 3×FLAG peptide; In LMNG-CHS micelles; also called ATG9B homotrimer; pcDNA3.1-3×FLAG-6×His-TEV-ATG9B; source: Expi293, transiently transfected, extracted into detergent micelles, …
  stoichiometry N: 3
